Reference: PMC13478228 (2026)

Experiments:
[1] = target: T1, human cytosolic seryl-tRNA synthetase (SerRS), tag-free, purified separately (human, UniProt P49591 1-514); test: 2000 uM ADPR
[2] = target: T1, human cytosolic seryl-tRNA synthetase …; test: 2000 uM NAD+
[3] = target: T1, human cytosolic seryl-tRNA synthetase …; test: 80 uM ADPR

B1: human sirtuin 2 (SIRT2), C-terminal His tag (enzyme)
chain: MAEPDPSHPLETQAGKVQEAQDSDSDSEGGAAGGEADMDFLRNLFSQTLSLGSQKERLLDELTLEGVARYMQSERCRRVICLVGAGISTSAGIPDFRSPSTGLYDNLEKYHLPYPEAIFEISYFKKHPEPFFALAKELYPGQFKPTICHYFMRLLKDKGLLLRCYTQNIDTLERIAGLEQEDLVEAHGTFYTSHCVSASCRHEYPLSWMKEKIFSEVTPKCEDCQSLVKPDIVFFGESLPARFFSCMQSDFLKVDLLLVMGTSLQVQPFASLISKAPLSTPRLLINKEKAGQSDPFLGMIMGLGGGMDFDSKKAYRDVAWLGECDQGCLALAELLGWKKELEDLVRREHASIDAQSGAGVPNPSTSASPKKSPPPAKDEARTTEREKPQ
- Kd [1]: 430 nM
- Kd [2]: 530 nM
- Kd [3]: 530 nM
